Data reported in the nanobody polyreactivity screen of Harvey et al. (2022).

Assay: yeast display, Sf9 membrane polyspecificity reagent, FACS + sequencing; frameworks hold sequencing errors
Procedure, shortened: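 A synthetic nanobody library was expressed on Saccharomyces cerevisiae BJ5465 by galactose induction for 36–48 hours. The library was stained for 1 hour at 4 °C with 10% biotinylated, detergent-solubilized Sf9 membrane reagent and enriched with streptavidin microbeads before FACS. Low and high (top ~1%) gates were set on anti-HA fluorescence for expression and streptavidin fluorescence for reagent binding, and each polyreactivity label reflects the gate of origin.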

Sequence	polyreactivity (PSR sort gate)
QVQLVESGGGLVQAGGSLRLSCAASGITFRGYAMGWYRQAPGKERELVAAISSRGGSTYYADSVKGRFTISRDNAKNTVYLQMNSLKPEDTAVYYCNAVSGLYFTYTYDYWGQGTQVTVSS	high polyreactivity
QVQLVESGGGLVQAGGSLRLSCAASGITFRGYAMGWYRQAPGTERELVAAITGSGTSTYADSVKGRFTISRDNAKNTVYLQMNILKPEDTAVYYCAADTYDPFYYGYGYWGQGTQVTVSS	low polyreactivity
QVQLVESGGGLVQAGGSLRLSCAASGITFRGYARGWYRQAPGKERELVASITNTDSTYYADSVKGRFTISRDNAKNTVYLQMNSLKPEDTAVYYCAARRGRKYGYWGQGTQVTVSS	high polyreactivity
QVQLVESGGGLVQAGGSLRLSCAASGITFRRYAMGWYRQAPGKERELVAAISRSGGSTRYADSVKGRFTISRDNAKNTVYLLMNSLKPEDTAVYYCAADGVPGRAVDYEYWGQGTQVTVSS	high polyreactivity
QVQLVESGGGLVQAGGSLRLSCAASGITFRRYAMGWYRQAPGKERELVAAITSSGGSTYYADSVKGRFSISRDNAKNTVYLQMNSLKPEDTAVYYCAARAYRVNWSSWYRSGYDYWGQGTQVTVSS	high polyreactivity
QVQLVESGGGLVQAGGSLRLSCAASGITFRTYAMGWYRQAPGKERELVAGIRTRTGSTYYADSVKGRFTISRDNAKNTVYLQMNSLKPEDTAVYYCAAKGSGYYGRQRIYSYTYDYWGQGTQVTVSS	high polyreactivity
QVQLVESGGGLVQAGGSLRLSCAASGITFRVYVMGGYRQAPGKERELVAAITSGTSTYYADSVKGRFTISRDNAKNTVYLQMNSLKPEDTAVYYCAADWDLFYAVVGFDFDYWGQGTQVTVSS	low polyreactivity
QVQLVESGGGLVQAGGSLRLSCAASGITFRWYAMGWYRQAPGKERELVAAISSSGGSTYYADSVKGRFTISRDNAKNTVYLQMNSLKPEDTAVYYCAAYTSYASDYWGQGTQVTVSS	high polyreactivity
QVQLVESGGGLVQAGGSLRLSCAASGITFRYNAMGWYRQAPGKERELVAAITFSGGSTYYADSVKGRFTISRDNAKNTVNLQMNSLKPEDTAVYYCAKLGSTSSRGNYDYWGQGTQVTVSS	low polyreactivity
QVQLVESGGGLVQAGGSLRLSCAASGITFRYYAMGWYRQAPGKERELVAAISSGSSTYYADSVKGRFTISRDNAKNTVYLQMNSLKPEDTAVYYCAARTYTTSRATTVYKRLNYWGQGTQVTVSS	high polyreactivity
QVQLVESGGGLVQAGGSLRLSCAASGITFRYYAMGWYRQAPGKERELVAAITGNGGGTYADSVKGRFTISRDNAKNTVYLQMNSLKPEVTAVYYCAADEPGLSWYDSYRYPDYGYDYWGQGTQVTVSS	low polyreactivity
QVQLVESGGGLVQAGGSLRLSCAASGITFRYYAMGWYRQAPGKERELVATISWSGGSTYYADSVKGRFTISRDNAKNTVYLQMNSLKPEDTAVYYCNADWYRSAWSKYDYWGQGTQVTVSS	high polyreactivity
QVQLVESGGGLVQAGGSLRLSCAASGITFRYYTMGWYRQAPGKERELVAVISWSGGSTYYADSVKGRFTISRDNAKNTVYLQMNSLKPEDTAVYYCAAVRRISRYDYWGQGTQVTVSS	high polyreactivity
QVQLVESGGGLVQAGGSLRLSCAASGITFSFYAMGWYRQAPGKERELVADITRGGNTNYADSVKGRFTISRDNAKNTVYLQMNSLKPEDTAVYYCNARRRGAGGYDYWGQGTQVTVSS	high polyreactivity
QVQLVESGGGLVQAGGSLRLSCAASGITFSHYAMGWYRQAPGKERELVAGITWSGGRTYYADSVKGRFTISRDNAKNTVYLQMNSLKPEDTAVYYCAPIHRTGYDMDYWGQGTQVTVSS	low polyreactivity
QVQLVESGGGLVQAGGSLRLSCAASGITFSKYAMGWYRPAPGKERELVAAISSTASTNYADSVKGRFTISRDNAKHTVYFQMNSLKPEDTAVYYCNAGLFFQWFWTYDDYWGQGTQVTVSS	low polyreactivity
QVQLVESGGGLVQAGGSLRLSCAASGITFSLYAMGWYRQAPGKERELVAAISKSGGSTYYADSVKGRFTISRDNAKNTVYLQMNSLKPEDTAVYYCAADFVSKTPWHAQDDYWGQGTQVTVSS	low polyreactivity
QVQLVESGGGLVQAGGSLRLSCAASGITFSLYVMGWYRQAPGKERELVAAISTSGGSTYYADSVKGRFTISRDNAKNTVYLQMTSLKPEDTAVYYCAAVYVLSWYVQTYDYWGQGTQVTVSS	low polyreactivity
QVQLVESGGGLVQAGGSLRLSCAASGITFSRNAMGWYRQAPGKERELVATITSGGSTNYADSVKGRFTISRDNAKNTVYLQMNSLKPEDTAVYYCNAVWNTFISGRSYDYWGQGTQVTVSS	low polyreactivity
QVQLVESGGGLVQAGGSLRLSCAASGITFSRNVMGWYRQAPGKERELVAAISRSGGRTYYADSVKGRFTISRDTAKNTVYLQINSLKAEDTAVYYCNRDIGGTSVLDDYWGQGTQVTVSS	low polyreactivity
QVQLVESGGGLVQAGGSLRLSCAASGITFSRYAMGWYRQAPGKERELVAAISSGGSTYYADSVKGRFTISRDNAKNTVYLQMNSLIPEDTAVYYCAADGLTGSKYRATGYYWGQGTQVTVSS	high polyreactivity
QVQLVESGGGLVQAGGSLRLSCAASGITFSRYAMGWYRQAPGTERELVAAITSSGGSTYYADSVKGRFTISRDNAKNTVYLQMNSLKPEDTAVYYCAATSYYTREQYYYWGQGTQVTVSS	high polyreactivity
